The results in this text go back to US20230227539A1 (HIFIBIO HK, published 2023).

The term EC50 denotes the concentration that produces a half-maximal response. A low value points to greater potency. In general, EC90 refers to the concentration at which the effect reaches the 90% level. The term IC50 denotes the concentration that gives 50% inhibition. A high value points to lower potency.

Residue numbers refer to the chain shown, from its start.

The chains are these.
B1: Ab-4 (IgG1) (antibody, V domains shown)
VH: QITLKESGPTLVKPTQTLTLTCTFSGFSLSTSGVGVGWIRQPPGKALEWLALIYWDDDKRYSPSLKSRLTITKDTSKNQVVLTMTNMAPVDTATYYCAHRLSNFWSGYYTGWGQGTLVTVSS
VL: not shown
B2: Ab-2 IgG1 (antibody, V domains shown)
VH: EVQLVESGGGLIQPGGSLRLSCAASGFIVSSNYMSWVRQAPGKGLEWVSIIYSGGSTFYADSVKGRFTISRDNSKNTLYLQMNSLRVEDTAVYYCARDLQELGSLDYWGQGTLVTVSS
VL: DIQMTQSPSSVSASVGDRVTITCRASQGISSWLAWYQQKPGKAPKLLIYAASSLQSGVPSRFSGSGSGTDFTLTISSLQPEDFATYYCQEANSFPYTFGQGTKLEIKR
notes: also called 2A2A; C1S5-2A2A
B3: Ab-3 (IgG1) (antibody, V domains shown)
VH: QLQLQESGPGLVKPSETLSLTCTVSGGSISSTIYYWGWIRQPPGKGLEWIGSIYYSGNAYYNPSLKSRVTISVDTSKNQFSLMLNSVTASDTAVYYCATPHTRWGPDYWGQGTLVTVSS
VL: NFMLTQPHSVSASPGKTVTVSCTRSSGSIASNYVLWYQQRPGSAPTTVIYEDDQRPSGVPDRFSASIDSSSNSASLTISGLKTEDEADYYCQSYDGDNLVFGGGTKLTVLG
B4: Ab-1 (IgG1) (antibody, V domains shown)
VH: B3 VH with T32S, M83K, S90A
VL: B3 VL
B5: Ab-8 (antibody, V domains shown)
VH: B2 VH with S25P
VL: B2 VL
B6: Ab-9 (antibody, V domains shown)
VH: B2 VH with Y107C
VL: B2 VL
B7: Ab-6 (antibody, V domains shown)
VH: QVQLVQSGAEVKKPGASVKVSCKVSGYTLTELSMHWVRQAPGKGLEWMGGFDPEDGETIYAQKFQGRVTMTEDTSTDTAYMELSSLRSEDTAVYYCATGHQLLFYNWFDPWGQGTLVTVSS
VL: QSALTQPPSASGSPGQSVTISCTGTSSDVGGYNYVSWYQQHPGKAPKLMIYEVSKRPSGVPDRFSGSKSGNTASLTVSGLQAEDEADYYCSSYAGSNNLVFGGGTKLTVLG
B8: Ab-7 (antibody, V domains shown)
VH: EVQLVESGGGLVKPGGSLRLSCAASGFAFSSYTMNWVRQAPGKGLAWVSSISSSSDYIFYADSVKGRCTISRDNAKNSLSLQMNSLRAEDTAVYYCARGSNTAWGGVPDAFDFWGLGTVVTVSS
VL: B7 VL with G31R, A82T

The first assay has as its target T1, SARS-CoV-2 S1 protein (S1 fragment of the S protein) (SARS-CoV-2, UniProt P0DTC2 16-685).
T1 construct: domain: S1
The experiment in a line: SPR negative control; as indicated by the domain ELISA. In general terms: An ELISA detects its analyte on a solid surface through an enzyme-linked reagent.
Turning to B1, the binding result is given as “no binding”.

A further assay has as its target T2, SARS-CoV-2 Spike S1+S2 ECD, his Tag protein (SARS-CoV-2, UniProt P0DTC2 14-1213).
T2 construct: extracellular domain
In words: binding to full-length S protein.
The molecule B2 displayed an EC50 of 0.55 nM. This counts as sub-nanomolar.

Another assay deals with T2, SARS-CoV-2 Spike S1+S2 ECD, his Tag …. The experiment in a line: ELISA, coated S1+S2 ECD His.
For the molecule B2, a half-maximal response (EC50) required 0.5 nM and the concentration for an effect of 90% (EC90) was found to be 2.56 nM.
Turning to B3, the midpoint of the response, the EC50, lay at 0.5 nM and the EC90 amounted to 9.36 nM.
The like results for B4 were, in that order, 0.53 nM and 6.03 nM.
For the molecule B1, a half-maximal effect (EC50) was put at 14.2 nM and the 90% effect concentration (EC90) is 328 nM.

A further assay concerns the target SARS-CoV-2 Spike S1, mFc tag spike protein (SARS-CoV-2, UniProt P0DTC2 16-685).
Assay: not given
In turn, B2 registered an IC50 of 3.78 nM. This lies in the single-digit nanomolar range.
The same measure, in the same setting: for B3 the value was 10.6 nM.
On the same count and under the same terms, for B4 the value was 11.1 nM.
Same read-out and setting: for B1 the value was more than 300 nM.

A further assay addresses T3, SARS-CoV-2 S protein on pseudotyped virus (wild type) (SARS-CoV-2, UniProt P0DTC2 14-1273). The experiment in a line: cell-based or functional assay.
On to B2, for which the “Pseudo-virus neutralization (Test 1) IC80” value was determined as 2.11 nM, the “Pseudo-virus neutralization (Test 2) IC50” value turned out to be 0.32 nM and the “Pseudo-virus neutralization (Test 2) IC80” value worked out at 1.29 nM.
In the case of B3, the “Pseudo-virus neutralization (Test 1) IC80” value amounted to 23.2 nM, the “Pseudo-virus neutralization (Test 2) IC50” value was found to be 2.61 nM and the “Pseudo-virus neutralization (Test 2) IC80” value was determined as 10.4 nM.
Regarding B4, the “Pseudo-virus neutralization (Test 1) IC80” value amounted to 16.3 nM, the “Pseudo-virus neutralization (Test 2) IC50” value was 1.62 nM and the “Pseudo-virus neutralization (Test 2) IC80” value was 6.48 nM.

Another assay has as its target T2, SARS-CoV-2 Spike S1+S2 ECD, his Tag …. The experiment in a line: ELISA (FIG. 6).
In the case of B5, the binding result is on record as “binds”.
Regarding B6, the binding result is reported as “binds”.
The same measure, in the same setting: for B7 the value was “binds”; for B8, “binds”.

Another assay has as its target T3, SARS-CoV-2 S protein on pseudotyped …. The experiment in a line: cell-based or functional assay. This is another data set of the same source.
Consider B2, for which the “Pseudo-virus neutralization IC50” value is 0.53 nM and the “Pseudo-virus neutralization IC90” value worked out at 4.76 nM.
On to B3, for which the “Pseudo-virus neutralization IC50” value is 5.8 nM and the “Pseudo-virus neutralization IC90” value came out at 52.2 nM.
The matching figures for B4: 4.07 nM and 36.6 nM.
Regarding B1, the “Pseudo-virus neutralization IC50” value was more than 300 nM and the “Pseudo-virus neutralization IC90” value was more than 300 nM.

The next assay concerns the target T2, SARS-CoV-2 Spike S1+S2 ECD, his Tag …. The experiment in a line: ELISA on His-tagged S1+S2 ECD (FIG. 7).
In turn, B2 had an EC50 of 0.021 nM. That is a picomolar value.
